According to patent US20150140043A1, “IMMUNOMODULATORY METHODS USING NOTCH AGONISTS” (INSTITUT NATIONAL DE LA SANTE DE LA RECHERCHE MEDICAL …, priority 2012, published 2015):

Columns and labels:
[1] = system: CD4+CD25- T cell proliferation; assay: Suppression assay: CD4+CD25- T cells co-cultured with Treg plus anti-CD3, with or without g-secretase inhibitor, [3H]thymidine incorporation; type: cell-based, human; details: for Treg-mediated suppression (percentage of inhibition of CD4+CD25- T cell proliferation): GSI added at the beginning of the coculture (10 μM), anti-CD3 1 μg/ml, 5 days, mean+/-SD
Procedure: FIG. 1: NOTCH signalling is involved in Treg mediated inhibition of anti-CD3 stimulated CD4^+CD25^− T cell proliferation • A) Various ratio of CD4^+CD25^− T cells and CD4^+CD25^high T cells were cultured for 5 days in coated wells with anti-CD3 (1 μg/ml) in the presence or not of inhibitor of g-secretase (GSI 10 μM). Percentages of inhibition were calculated from the raw data using the equations: 1—(mean cpm of co-culture wells divided by mean cpm of CD4^+CD25^− cells cultured alone)×100. The data represent the mean±SEM and are representative of 5 independent experiments. * indicates P<0.05. • B) CD4^+CD25^−T cells were cultured for 18 hours in coated wells with anti-CD3 and NOTCH ligands (5 μg/ml) or IgG control (5 μg/ml). Then, T cells were washed and incubated for 5 days in coated wells with anti-CD3 in the absence or presence of Treg at ratio 1:8. The data represent the mean±SEM of inhibition of T cell proliferation of 5 independent experiments.
Peripheral blood mononuclear cells were separated by Ficoll-Hypaque centrifugation (Amersham Biosciences) from buffy coats obtained from healthy blood donors (EFS, Créteil). CD4^+ CD25^− T cells and CD4^+CD25^high T cells were isolated using a CD4^+ T cell enrichment column and a human CD4^+CD25^+ Treg isolation kit purchased from Miltenyi Biotec. CD4^+CD25^− cells and CD4^+CD25^+ cells were enriched to greater than 95% purity. […]
A total of 2.5×10^4 CD4^+CD25^− T cells were cultured with various ratios of CD4^+CD25^high cells and 1 μg/ml of anti-CD3 for 5 days, in the presence or absence of 10 μm of the gamma-secretase inhibitor Compound E. A total of […] [^3H] thymidine (Amersham Pharmacia) was added to the wells during the last 16 hours of culture. The cells were then harvested and assessed for [^3H] thymidine incorporation using a liquid scintillation counter. Results were expressed as mean cpm of quadriplicate culture wells.
Percentage of inhibition was calculated as follows: 1−(mean cpm of co-culture wells divided by mean cpm of CD4^+CD25^− cells cultured alone)×100. […]

[2] = system: TGF-βRII RNA expression; assay: Quantitative real-time PCR of TGF-βRII transcripts in CD4+CD25- T cells; type: cell-based, human; details: coated anti-CD3 and DL-4 or Jagged-1 for 3 hours, in the presence of GSI
Procedure: FIG. 3: TGF-βRII expression on effector T cells after NOTCH ligands exposure • A) CD4^+CD25^−T cells were purified using Miltenyi microbeads from PBMC and cultured for 3 hours in coated wells with anti-CD3 (200 ng/ml) and NOTCH ligands (5 μg/ml) or IgG control (5 μg/ml). Quantitative real-time PCR was performed to measure the transcripts levels of TGF-βRII. Data shown are mean±SEM and are representative of 4 independent experiments. * indicates P<0.05. • B) Protein levels of TGF-βRII in CD4^+CD25^−T cells stimulated to DL-1, DL-4 and Jagged-1 using FACS analysis. Mean of fluorescence are represented±SEM. * indicates P<0.05.
CD4^+CD25^− T cells were cultured for 3 hours in coated wells with anti-CD3 (200 ng/ml) and NOTCH ligands (5 μg/ml) or IgG control (5 μg/ml). Total RNA was extracted with Trizol (Invitrogen) and purified by chloroform extraction. RNA was then reverse transcribed using 1 mM oligodT and the Superscript™ HH Rnase H-reverse transcriptase (Invitrogen Life technologies) according to the manufacturer's instructions. Quantitative PCR was performed in a LightCycler System (Roche diagnostics) using a SYBR Green PCR kit from Roche Diagnostics. The cDNA input for each population was normalized to obtain equivalent signals with Splicing Factor 3A1 (SF3A1) used as housekeeping gene. Primers used were: […]
Active TGF-β mediates its biological functions by binding to TGF-β type I and type II receptors (TGF-βRII). Therefore, the effects of NOTCH activation on TGF-βRII expression of effector T cells were first investigated. […] This effect is abrogated in the presence of GSI (P<0.05 for comparison with culture performed without GSI vehicle).

[3] = molecular target: NOTCH on human CD4+CD25- effector T cells; assay: cell-based or functional assay

| Percentages of inhibition of cell proliferation (CD4+CD25- T cells pre-exposed to ligand, co-cultured with Treg at ratio 1:8) [3] [%] | TGF-βRII RNA expression, fold increase against IgG control (real-time PCR, 3 hours) [3] [fold] | expression of TGF-βRII on CD4+CD25- T cells after 48 hours on ligand (flow cytometry, MFI; IgG control MFI 53) [3] [MFI] | mean inhibition of T cell proliferation (co-culture with Treg at ratio 1:16 on immobilized ligand) [3] [%] | percentage of inhibition of CD4+CD25- T cell proliferation with anti-CD3, ligand and TGF-β (0.1 ng/ml) [3] [%] | Molecule | Treg-mediated suppression (percentage of inhibition of CD4+CD25- T cell proliferation) ([1]; Treg/Effector ratio 1:4) [%] | Treg-mediated suppression (percentage of inhibition of CD4+CD25- T cell proliferation) ([1]; Treg/Effector ratio 1:8) [%] | Effect on proliferation of CD4+CD25- T cells cultured alone ([1]; no Treg, data not shown) | Effect of GSI on the DL-4 / Jagged-1 induced increase in TGF-βRII RNA expression [2] |
| --- | --- | --- | --- | --- | --- | --- | --- | --- | --- |
| – | – | – | – | – | C[C@H](NC(=O)Cc1cc(F)cc(F)c1)C(=O)N[C@H]1N=C(c2ccccc2)c2ccccc2N(C)C1=O [GSI, Compound E] | 46.9 | 49.3 | did not affect the proliferation | abrogated |
| 65 | 2.8 | 130 | 65 | 87.8 | Jagged-1-Fc (from UniProt P78504 34-1067) (Fc fusion) | – | – | – | – |
| 64.8 | – | 85 | – | 42.9 | DL-1-Fc (from UniProt O00548 18-545) (Fc fusion) | – | – | – | – |
| 64.2 | 4.4 | 166 | 47 | 74.1 | DL-4-Fc (from UniProt Q9NR61 27-529) (Fc fusion) | – | – | – | – |
